Assay results: article PMC11094360, “Systematic characterization of gene families and functional analysis of PvRAS3 and PvRAS4 involved in rosmarinic acid biosynthesis in Prunella vulgaris” (Frontiers in Plant Science, 2024)

Columns and labels:
[1] = system: PvRAS4; assay: UPLC of product formation, nonlinear regression; assay type: biochemical, Prunella vulgaris; conditions: varied acyl donor, 2 mM DHPL; 100 mM Tris-HCl pH 7.0, 2 mM DTT, 4 mM MgCl2, 10% glycerol, 25 °C
Text: UPLC of product formation, nonlinear regression on PvRAS4

[2] = system: PvRAS4; assay: UPLC of acceptor consumption, nonlinear regression; assay type: biochemical, Prunella vulgaris; conditions: varied acyl acceptor, 2 mM p-coumaroyl-CoA; 100 mM Tris-HCl pH 7.0, 2 mM DTT, 4 mM MgCl2, 10% glycerol, 25 °C
Text: UPLC of acceptor consumption, nonlinear regression on PvRAS4

[3] = substrate: O=C(O)C(O)Cc1ccc(O)cc1; assay: UPLC of acceptor consumption, nonlinear regression; assay type: biochemical, Prunella vulgaris; conditions: varied acyl acceptor, 2 mM p-coumaroyl-CoA, 100 mM Tris-HCl pH 7.0, 2 mM DTT, 4 mM MgCl2, 10% glycerol, 25 °C
Text: UPLC of acceptor consumption, nonlinear regression on PvRAS3

[4] = substrate: CC(C)(COP(=O)(O)OP(=O)(O)OC[C@H]1O[C@@H](n2cnc3c(N)ncnc32)[C@H](O)[C@@H]1OP(=O)(O)O)[C@@H](O)C(=O)NCCC(=O)NCCSC(=O)/C=C/c1ccc(O)c(O)c1; assay: UPLC of product formation, nonlinear regression; assay type: biochemical, Prunella vulgaris; conditions: varied acyl donor, 2 mM DHPL, 100 mM Tris-HCl pH 7.0, 2 mM DTT, 4 mM MgCl2, 10% glycerol, 25 °C
[5] = substrate: CC(C)(COP(=O)(O)OP(=O)(O)OC[C@H]1O[C@@H](n2cnc3c(N)ncnc32)[C@H](O)[C@@H]1OP(=O)(O)O)[C@@H](O)C(=O)NCCC(=O)NCCSC(=O)/C=C/c1ccc(O)cc1; assay: UPLC of product formation, nonlinear regression; assay type: biochemical, Prunella vulgaris; conditions: varied acyl donor, 2 mM pHPL, 100 mM Tris-HCl pH 7.0, 2 mM DTT, 4 mM MgCl2, 10% glycerol, 25 °C
[6] = substrate: O=C(O)[C@H](O)Cc1ccc(O)c(O)c1; assay: purified protein; conditions: varied acyl acceptor, 2 mM p-coumaroyl-CoA, 100 mM Tris-HCl pH 7.0, 2 mM DTT, 4 mM MgCl2, 10% glycerol, 25 °C

Work on CC(C)(COP(=O)(O)OP(=O)(O)OC[C@H]1O[C@@H](n2cnc3c(N)ncnc32)[C@H](O)[C@@H]1OP(=O)(O)O)[C@@H](O)C(=O)NCCC(=O)NCCSC(=O)/C=C/c1ccc(O)cc1 [p-coumaroyl-CoA] yielded a Km [1] of 218 ± 10.3 µM.

O=C(O)[C@H](O)Cc1ccc(O)c(O)c1 [DHPL] showed a Km [2] of 227 ± 17.5 µM.

With O=C(O)C(O)Cc1ccc(O)cc1 (stereo not shown) [pHPL] the Km [2] was 228 ± 16.6 µM.

B1: PvRAS3 (Prunella vulgaris) (protein)
chain: MKIEVKESTMVKPAAETPTGGLWISNLDLLSPANYHTLSVHFYRHDGSDNFFEAAPLKEALSRALVEFYPYAGRLKLNGKRLEIDCNGEGLLLVEAESDGTLEELGDFAPRPDLNLIPKVDYSKGISSYPLMLFQITRFKCGGVGLGVANEHHLSDGVSALHFINTWCHLARGVPAPSPAPVFDRTALSARSPPKVEFTHPEFQPPPTLPTPLEHTDIAYAKLKLSRDQLNALKAKCKSPATANGQENGKPARPYSTFEVLAGHIWRCVCAARGLPAEQETKLHIPFDGRAKLQLPAGFFGNAIFFATPIATCGEVEANSLSYAVRRVGDAIGRLDEEYLRSSVDFLELQDDISKLAQGAHSFRCPNLWVISWVRLPIYEPDFGWGKAVYMGPWAAPFEGKSYLLPNPDNDGSLFVAITLHTQHMDRFQNFFYDI
Work on B1 yielded a Km [3] of 32.1 ± 0.7 µM, a Vmax [3] of 19.4 µmol/min/mg and a kcat [3] of 33.3 ± 2.3 s⁻¹. For the same molecule, the kcat/Km [3] was 1e+06 M⁻¹ s⁻¹, the Km [4] was 173.2 ± 9.0 µM and the Vmax [4] was 9.95 µmol/min/mg. The kcat [4] was 14.1 ± 1 s⁻¹, the kcat/Km [4] was 80000 M⁻¹ s⁻¹ and the Km [5] was 30.6 ± 1.2 µM. It also gave a Vmax [5] of 18.7 µmol/min/mg, a kcat [5] of 34.3 ± 2.2 s⁻¹ and a kcat/Km [5] of 1.1e+06 M⁻¹ s⁻¹. The Km [6] was 41.7 ± 1.2 µM, the Vmax [6] was 18.2 µmol/min/mg and the kcat [6] was 30.5 s⁻¹. It also gave a kcat/Km [6] of 700000 M⁻¹ s⁻¹.
